Laboratory results published in patent US20200010534A1 (SAGABIO, published 2020).

Experiments:
[1] = molecular target: T1, HpHSP60 fragment including positions 101-200 (Helicobacter pylori, UniProt B2UW12 101-200); test: recognition of HpHSP60 fragments by the antibody (spot/blot, FIG. 15)
T1 construct: also called HSP 60 101-200
T1 sequence: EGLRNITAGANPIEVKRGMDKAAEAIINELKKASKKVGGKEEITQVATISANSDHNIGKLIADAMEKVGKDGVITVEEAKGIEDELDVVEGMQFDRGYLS

[2] = molecular target: T2, HpHSP60 fragment Δ[1], positions 134-200 of HpHSP60 (Helicobacter pylori, UniProt B2UW12 134-200); test: recognition of HpHSP60 fragments by the antibody (spot/blot, FIG. 16)
T2 sequence: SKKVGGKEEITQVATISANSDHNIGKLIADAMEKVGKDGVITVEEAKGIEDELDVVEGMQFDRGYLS

[3] = molecular target: T3, HpHSP60 fragment Δ[5], positions 101-168 of HpHSP60 (Helicobacter pylori, UniProt B2UW12 101-168); test: as above
T3 sequence: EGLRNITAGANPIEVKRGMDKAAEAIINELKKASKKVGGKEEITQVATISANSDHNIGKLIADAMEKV

B1: LHP-1 (9E4) antibody (antibody, V domains shown)
VH: EVHLVESGGDLVKPGGSLKLSCAASGFTFSSFGMSWVRQTPDKRLEWVATISNGGSYTYYPDSVKGRFTISRDNAKNTLYLQMSSLKSEDTAMYYCTRQGLRRRGAMDYWGQGTSVTVSS
VL: DIVLTQSPASLAVSLGQRATISCKASQSVDYDGDVFLNWYQQKPGQPPKLLIYAASNLESGIPARFSGSGSGTDFTLNIHPVEEDDAATYYCQQSNEVPWTFGGGTKLEIK
notes: Mouse monoclonal antibody from hybridoma 9E4 (ATCC PTA-122900); The variable regions are tied to the deposited hybridoma only in the claims; also called LHP-1 (9E4) mAb; monoclonal antibody produced by hybridoma ATCC PTA-122900
[1]
  binding result: binds
[2]
  binding result: binds
[3]
  binding result: no binding
